The values that follow come from the supplement of paper PMC12764529.

± gives the half width of the 95% confidence interval.

Data set [1] can be described thus: folding stability dG unfold from chymotrypsin proteolysis; higher = more stable. The method in brief:
(§1)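 Unfolding free energy was derived, per protease or combined, against a sequence-predicted unfolded-state K50 and a shared folded-state K50, starting from K50 inferred by Bayesian fitting of sequencing counts. Digestion with trypsin and chymotrypsin was carried out on designed mini-proteins under 80 residues without cysteine in a PA-tagged cDNA display construct. Only designs with AlphaFold2 dimer inter-PAE above 15 were kept.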

The nature of data set [2]: folding stability dG unfold from trypsin proteolysis; higher = more stable. The method in brief:
as §1

A short description of data set [3]: folding stability dG unfold (combined trypsin and chymotrypsin); higher = more stable. In a few lines:
as §1

On to “SAGGSAIPGMPIKEIARALQDKFPPGKPPQIKIRNKNGETKTFEPNKTIDDIPMDGVVEIEIEFRPSAGGSA [r15_50_TrROS]”, for which the “folding stability dG unfold” value was 0.0124 ± 0.075 kcal/mol in data set [1], -0.52 ± 0.62 kcal/mol in data set [2] and 0.0509 ± 0.19 kcal/mol in data set [3].

“SAGGSAITIEVTMNPNGYMGIRLRDPGNGEEIQIPFPMEPGQNPEDVRNWAREIVDELKKDGWRIYSAGGSA [r15_1022_TrROS]”: the entries for the “folding stability dG unfold” value in data set [1], in data set [2] and in data set [3] were 1.76 ± 0.11 kcal/mol, 1.28 ± 0.019 kcal/mol and 1.59 ± 0.038 kcal/mol, respectively.

As for “SAGGSAKDEKVVVIVRREVRLRSRPKVDLGEGNPRVEFESSVEVRVPFLVLPEDDPVARELRELEGSAGGSA [r15_470_TrMRF]”, the figures for the “folding stability dG unfold” value in data set [1], in data set [2] and in data set [3] were -0.255 ± 0.24 kcal/mol, -0.46 ± 0.21 kcal/mol and -0.26 ± 0.1 kcal/mol, respectively.

Turning to “SAGGSAKELIIKIKIKVKVNGKTYEIEIEIKAESIEEAIEAIKKKLEEEGLEIEIVEIEIIPKEELSAGGSA [r15_165_TrROS_Hall]”, the figures for the “folding stability dG unfold” value in data set [1], in data set [2] and in data set [3] were 3.08 ± 0.081 kcal/mol, 3 ± 0.086 kcal/mol and 2.99 ± 0.1 kcal/mol, respectively.

Take “SAGGSAKEWVWVISIKYRYPNGEPLAPIPIMIPPDDPEIDIDEIADEIARKHGLDEIEVNIHPIPVSAGGSA [r15_333_TrROS]”: the “folding stability dG unfold” value in data set [1] was 2.03 ± 0.12 kcal/mol; in data set [2], 1.59 ± 0.052 kcal/mol; in data set [3] it was 1.9 ± 0.14 kcal/mol.

Regarding “SAGGSAKFKLEATPLEDGTLIIPIEIEVTVEKPFPDPNGIPKIKPVKKKFRFLIIKDGDEIKIFLGSAGGSA [r15_883_TrMRF]”, the “folding stability dG unfold” value in data set [1] came out at 2.66 ± 0.097 kcal/mol; in data set [2], 1.59 ± 0.089 kcal/mol; in data set [3] it was 2.31 ± 0.23 kcal/mol.

For “SAGGSAKIDIEVDPEDGYIRIKLEVQHNDEPVKATMWYPLPDDGMFIRIRFDMPNGKIEEIETIPPSAGGSA [r2_331_TrROS]”, the entries for the “folding stability dG unfold” value in data set [1], in data set [2] and in data set [3] were 4.07 ± 0.12 kcal/mol, 2.69 ± 0.14 kcal/mol and 3.91 ± 0.27 kcal/mol, respectively.

Consider “SAGGSAKILEEALEALKKAKPGEEVEIEIEIEVNGKKYRIKVKVTYDEETGKITIEIVEIEELPEESAGGSA [r15_724_TrROS_Hall]”, for which the entries for the “folding stability dG unfold” value in data set [1], in data set [2] and in data set [3] were 4.11 ± 0.14 kcal/mol, 3.23 ± 0.14 kcal/mol and 3.8 ± 0.14 kcal/mol, respectively.

Turning to “SAGGSAKITPGEEINFMFYNPENGQPFMVRIRIEKITVKRKPKDGKRKVEYKIKIEMSPGMKEITISAGGSA [r15_248_TrROS]”, the “folding stability dG unfold” value in data set [1] amounted to 3.32 ± 0.11 kcal/mol; in data set [2], 2.26 ± 0.15 kcal/mol; in data set [3], 3.23 ± 0.3 kcal/mol.

Consider “SAGGSAKIVIKPDGTIEVEVNGKTFTFPPGAEIEIEEKDGELVLRIRLFNKDGKEVEEFEVTVRIESAGGSA [r15_424_TrROS_Hall]”, for which the figures for the “folding stability dG unfold” value in data set [1], in data set [2] and in data set [3] were 5.51 ± 0.18 kcal/mol, 4.36 ± 0.19 kcal/mol and 5.48 ± 0.18 kcal/mol, respectively.

For “SAGGSAKKKEKKVEKKVITIEVEPGVKTPEEMLEAIRKLKEEYPDTKIIIKASDEQKEALKRLLKESAGGSA [r15_89_TrROS_Hall]”, the figures for the “folding stability dG unfold” value in data set [1], in data set [2] and in data set [3] were 0.879 ± 0.14 kcal/mol, 0.669 ± 0.16 kcal/mol and 0.767 ± 0.3 kcal/mol, respectively.

Turning to “SAGGSAKKKEVKELTLVIKVKTEEEALKAAEELIRKLLPPDAEIVEVKVEKVKPGEVYITVKVRLKSAGGSA [r15_183_TrROS_Hall]”, the “folding stability dG unfold” value came out at 3.99 ± 0.14 kcal/mol in data set [1], 2.36 ± 0.12 kcal/mol in data set [2] and 3.67 ± 0.18 kcal/mol in data set [3].

On to “SAGGSAKKKKGKKKKKIKKIKIKLKLPPGAEIVKIDKEKGVIYIRNKKTNKIYKIDLKTGKIVEIPSAGGSA [r15_452_TrROS_Hall]”, for which the figures for the “folding stability dG unfold” value in data set [1], in data set [2] and in data set [3] were 3.66 ± 0.26 kcal/mol, 1.86 ± 0.17 kcal/mol and 3.27 ± 0.39 kcal/mol, respectively.

As for “SAGGSAKKKKKKKKKKKKKKEKKEVVIVIKAKSKEEAEKAVKKLLEELQKKYNIPLPKNVKVIILPSAGGSA [r15_496_TrROS_Hall]”, the figures for the “folding stability dG unfold” value in data set [1], in data set [2] and in data set [3] were 4.34 ± 0.24 kcal/mol, 3.33 ± 0.11 kcal/mol and 3.65 ± 0.37 kcal/mol, respectively.

As for “SAGGSAKKKKKKKVKKVITIPVGGYKIEITYNKKTKKITVKVYKKNKNGKLLSEEEVKKLVKELLSSAGGSA [r15_735_TrROS_Hall]”, the entries for the “folding stability dG unfold” value in data set [1], in data set [2] and in data set [3] were 3.4 ± 0.2 kcal/mol, 1.73 ± 0.1 kcal/mol and 2.58 ± 0.53 kcal/mol, respectively.

Consider “SAGGSAKKKKTLKITLIIKVKTKEEAEKLAEELAEKLKKLLPEGAKIKVKVTVNKETGYVTVEIELSAGGSA [r15_981_TrROS_Hall]”, for which the “folding stability dG unfold” value in data set [1] is 3.64 ± 0.14 kcal/mol; in data set [2], 2.88 ± 0.16 kcal/mol; in data set [3] it was 3.38 ± 0.15 kcal/mol.

“SAGGSAKKPKPVKYNVVITLKDGKTITLTLPFGSLEKAKEFIEKNFPDAIVTYNPKTGNVTVYLPVSAGGSA [r15_313_TrMRF]”: the results for the “folding stability dG unfold” value in data set [1], in data set [2] and in data set [3] were 3.543 ± 0.03 kcal/mol, 1.87 ± 0.035 kcal/mol and 3.16 ± 0.12 kcal/mol, respectively.

For “SAGGSAKKTIKITIEVDGKTIEITKITVNENGEVTIEVKITNKNGKETKTIKITMTVEELKALLKSSAGGSA [r15_56_TrROS_Hall]”, the “folding stability dG unfold” value was found to be 2.55 ± 0.081 kcal/mol in data set [1], 1.63 ± 0.042 kcal/mol in data set [2] and 2.18 ± 0.095 kcal/mol in data set [3].

For the sequence “SAGGSAKKVIVIEVKPGEKITITINGKKVEIVEVKPEGETFLIRNKDTGEIYKITVVDGKVVIEKLSAGGSA [r15_235_TrROS_Hall]”, the “folding stability dG unfold” value in data set [1] came out at 4.28 ± 0.076 kcal/mol; in data set [2] it was 2.43 ± 0.09 kcal/mol; in data set [3] it was 3.74 ± 0.22 kcal/mol.

With “SAGGSAKKVRIEIERNADGTLRITVTLPDGTKKEITVDKPGMTLEEIAKKLGLPEGAEITEIERVPSAGGSA [r15_167_TrROS_Hall]”, the “folding stability dG unfold” value in data set [1] stood at 2.71 ± 0.035 kcal/mol; in data set [2], 2.97 ± 0.067 kcal/mol; in data set [3], 2.83 ± 0.075 kcal/mol.

Take “SAGGSAKKVVLLTIPPSANLPPNSKLVVKFPNGKEKTYKFNDKPVVILLVTDNNGNFSFGVSVEDKSAGGSA [r15_992_TrMRF]”: the “folding stability dG unfold” value is 3.44 ± 0.17 kcal/mol in data set [1], 1.87 ± 0.063 kcal/mol in data set [2] and 2.68 ± 0.3 kcal/mol in data set [3].

Consider “SAGGSAKLIVADVSPLPDGGFAVNVTFVGENGEPVAVKPFYAGSPEELLAALKKFAEENGYEVVVASAGGSA [r15_242_TrMRF]”, for which the entries for the “folding stability dG unfold” value in data set [1], in data set [2] and in data set [3] were 4.57 ± 0.06 kcal/mol, 3.6 ± 0.12 kcal/mol and 4.43 ± 0.11 kcal/mol, respectively.

For the sequence “SAGGSAKLNITKILSVEFSEDGTIRIKVENENGELYELEIKVKVIPPPEKPEIDPKYLTPEDLEKYSAGGSA [r15_41_TrMRF]”, the “folding stability dG unfold” value in data set [1] is 1.61 ± 0.11 kcal/mol; in data set [2], 1.43 ± 0.029 kcal/mol; in data set [3], 1.6 ± 0.12 kcal/mol.

Regarding “SAGGSAKMKKVKITLYAKVKSLEEAKEIAEEIKKSFPSIEKVEVKTEPLEDGSLLVKVDAIFYVPESAGGSA [r15_726_TrMRF]”, the “folding stability dG unfold” value turned out to be 4.17 ± 0.11 kcal/mol in data set [1], 2.66 ± 0.072 kcal/mol in data set [2] and 3.7 ± 0.16 kcal/mol in data set [3].

Take “SAGGSAKNEYITVNITIIVYNPEDGKIEKIINLPIKVPKNLTKEQVINLAKKLLEEKGYEIAEIKGSAGGSA [r15_195_TrMRF]”: the “folding stability dG unfold” value in data set [1] turned out to be 3.24 ± 0.13 kcal/mol; in data set [2] it was 2.22 ± 0.12 kcal/mol; in data set [3] it was 2.85 ± 0.2 kcal/mol.

As for “SAGGSAKPDLVRTGPLLLPTAVVLPSVHFADPDVSVSLFRTPNGPPYLALAFIDPETGEPHIVLFPSAGGSA [r15_84_TrMRF]”, the “folding stability dG unfold” value came out at 1.71 ± 0.07 kcal/mol in data set [1], 0.934 ± 0.036 kcal/mol in data set [2] and 1.44 ± 0.09 kcal/mol in data set [3].

With “SAGGSAKPELVKKLKEALEEEFPDLKVEVVKVDKKNKKIYIKVKSEEEKKRIAELLKKLGIEVEIESAGGSA [r15_196_TrROS_Hall]”, the “folding stability dG unfold” value in data set [1] was determined as 3.33 ± 0.079 kcal/mol; in data set [2], 3.06 ± 0.25 kcal/mol; in data set [3], 3.18 ± 0.21 kcal/mol.

For the sequence “SAGGSAKPKIKINIFYPKDGQWYVMIQDPGGEEVMGPWDDIDKIIEAGIPADDVEIEWMPMPPGQFSAGGSA [r15_955_TrROS]”, the “folding stability dG unfold” value in data set [1] was 1.15 ± 0.048 kcal/mol; in data set [2] it was 1.03 ± 0.014 kcal/mol; in data set [3], 1.09 ± 0.05 kcal/mol.

On to “SAGGSAKPKIKITITRNEDGSLLVRITLPDGREVELSVDDIKALEDAGINLDDVEITEVEVSPEDLSAGGSA [r15_955_TrROS_Hall]”, for which the “folding stability dG unfold” value in data set [1] was found to be 2.71 ± 0.067 kcal/mol; in data set [2], 3.92 ± 0.12 kcal/mol; in data set [3] it was 3.36 ± 0.13 kcal/mol.

For “SAGGSAKPKRFVALIKLKGPEGKEIAEIPIVISPDKPEVDIDEIAREIAEKLGVEEIEAEIKEIEESAGGSA [r15_333_TrMRF]”, the “folding stability dG unfold” value in data set [1] was found to be 0.633 ± 0.2 kcal/mol; in data set [2] it was 0.48 ± 0.13 kcal/mol; in data set [3] it was 0.498 ± 0.28 kcal/mol.

Take “SAGGSAKPKVEVEIVDVEFEEVEVNGKKYLVMKMKVKLKETGEYIEVTMVFDLKTNKMYIEVKKLPSAGGSA [r15_528_TrROS_Hall]”: the “folding stability dG unfold” value in data set [1] came to 5.09 ± 0.24 kcal/mol; in data set [2], 3.49 ± 0.29 kcal/mol; in data set [3], 5.17 ± 0.43 kcal/mol.

“SAGGSAKRKVEIEIVLSAEELEEAIKEGKPLSEELQKRIEELLKKAEEAGIDEVRIRIVPPGLPEPSAGGSA [r15_304_TrROS_Hall]”: the entries for the “folding stability dG unfold” value in data set [1], in data set [2] and in data set [3] were 1.22 ± 0.036 kcal/mol, 0.89 ± 0.089 kcal/mol and 1.16 ± 0.12 kcal/mol, respectively.

Regarding “SAGGSAKRKVEIEIYISREELEEAKKNGKEPTAEAQKQIHRIAKRAREEGMDTVEIKIIPPGQPIPSAGGSA [r15_304_TrROS]”, the figures for the “folding stability dG unfold” value in data set [1], in data set [2] and in data set [3] were 0.785 ± 0.18 kcal/mol, -0.0963 ± 0.34 kcal/mol and 0.309 ± 0.28 kcal/mol, respectively.

For the sequence “SAGGSAKTISIIIPFKGLTPEQAIEIAKELEKLLGTKAKIESIPGKGYILVTLELPNKTSYIIIPGSAGGSA [r15_168_TrMRF]”, the “folding stability dG unfold” value in data set [1] was 2.08 ± 0.039 kcal/mol; in data set [2], 1.81 ± 0.041 kcal/mol; in data set [3] it was 2 ± 0.053 kcal/mol.

On to “SAGGSAKTVTVEVTLEDGTKITVTVPEDMSEEERKALAQELAEELREKLRQLRELEKEGKEVRIEPSAGGSA [r15_704_TrROS_Hall]”, for which the figures for the “folding stability dG unfold” value in data set [1], in data set [2] and in data set [3] were 2.72 ± 0.042 kcal/mol, 1.02 ± 0.023 kcal/mol and 2.23 ± 0.051 kcal/mol, respectively.
